# Test results: patent US20230265151A1, “GIP/GLP1 CO-AGONIST COMPOUNDS” (priority 2020, published 2023)
# T1: human GIP receptor (human, UniProt P48546 22-466)
# T1 construct: whole, on cells; also called hGIPR; human glucose-dependent insulinotropic polypeptide receptor
# T1 sequence (looked up): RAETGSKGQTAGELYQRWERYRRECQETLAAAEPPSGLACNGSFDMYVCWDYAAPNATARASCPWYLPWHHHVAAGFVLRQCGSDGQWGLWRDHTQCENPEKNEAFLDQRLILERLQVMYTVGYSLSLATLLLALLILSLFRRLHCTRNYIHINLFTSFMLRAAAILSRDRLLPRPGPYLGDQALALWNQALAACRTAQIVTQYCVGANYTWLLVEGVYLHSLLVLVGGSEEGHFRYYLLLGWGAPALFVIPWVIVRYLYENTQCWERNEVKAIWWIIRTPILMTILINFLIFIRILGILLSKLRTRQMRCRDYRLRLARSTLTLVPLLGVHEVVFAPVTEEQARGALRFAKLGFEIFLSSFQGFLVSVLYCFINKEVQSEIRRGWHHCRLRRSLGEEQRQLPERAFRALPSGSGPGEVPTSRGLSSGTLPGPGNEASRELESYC
# Tests used:
# human GIP receptor = target: T1, human GIP receptor; assay: SPA competition vs [125I]-GIP, hGIPR membranes
# human glucagon receptor = target: T2, human glucagon receptor (human, UniProt P47871 26-477); assay: SPA competition vs [125I]-Gcg, hGcgR membranes
# T2 construct: whole, on cells; also called hGCGR; hGcgR
# T2 sequence (P47871 26-477): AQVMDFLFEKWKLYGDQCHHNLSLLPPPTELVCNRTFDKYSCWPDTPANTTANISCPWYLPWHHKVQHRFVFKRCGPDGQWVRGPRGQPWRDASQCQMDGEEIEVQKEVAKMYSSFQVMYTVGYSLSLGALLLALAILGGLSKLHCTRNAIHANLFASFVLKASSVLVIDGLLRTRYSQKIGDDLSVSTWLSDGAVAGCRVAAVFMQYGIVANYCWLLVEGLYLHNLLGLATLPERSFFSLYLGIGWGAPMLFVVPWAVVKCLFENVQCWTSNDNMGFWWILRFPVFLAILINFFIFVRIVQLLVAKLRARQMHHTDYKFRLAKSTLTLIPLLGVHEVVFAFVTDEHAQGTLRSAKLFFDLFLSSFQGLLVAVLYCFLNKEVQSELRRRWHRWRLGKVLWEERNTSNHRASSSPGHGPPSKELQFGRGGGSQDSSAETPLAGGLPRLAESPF
# Method: The binding buffer contains 25 mM 4-(2-hydroxyethyl)-1-piperazineethanesulfonic acid (HEPES), pH 7.4, 2.5 mM CaCl₂, 1 mM MgCh, 0.1% (w/v) bacitracin (Research Products), 0.003% (w/v) Polyoxyethylenesorbitan monolaurate (TWEEN®-20), and Roche Complete™ Protease Inhibitors without EDTA. […] Plates are sealed and mixed on a plate shaker (setting 6) for 1 minute and read with a PerkinElmer Trilux MicroBeta® scintillation counter after 12 hours of incubation/settling time at room temperature.
# Data are analyzed using four-parameter (curve maximum, curve minimum, IC₅₀, Hill slope) nonlinear regression routines (Genedata Screener, version 12.0.4, Genedata AG, Basal, Switzerland). […] Values for Kᵢ are reported as the geometric mean, with error expressed as the standard error of the mean (SEM) and n is equal to the number of independent replicates (determined in assays performed on different days).
# human GLP-1 receptor = target: T3, human GLP-1 receptor (human, UniProt P43220 24-463); assay: SPA competition vs [125I]-GLP-1, hGLP-1R membranes
# T3 construct: whole, on cells; also called hGLP-1R; human glucagon-like peptide-1 receptor
# How it was run: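 Kᵢ values are geometric means (SEM) over replicates run on separate days, derived from IC₅₀ of four-parameter curve fits. Buffer: HEPES 25 mM pH 7.4 with CaCl₂ 2.5 mM, MgCl₂ 1 mM, bacitracin 0.1%, TWEEN-20 0.003%, EDTA-free protease inhibitors.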
Binder,Ki (human GIP receptor) [nM],Ki (human glucagon receptor) [nM],Ki (human GLP-1 receptor) [nM]
"YXEGTXTSDXSIXLDXIAQXKFIXXLIEGGPSSGAPPPSK (Aib2, αMeF(2F)6, 4Pal10, αMeL13, Orn16, Aib20, K21(Z1), D-Glu24, αMeY25, K40(Z1), C-term NH2; Z1=AEEA2-(γ-Glu)-CO-(CH2)12-CO2H)",0.107,206,2.8
"YXEGTXTSDXSIXLDXKAQXEFIXXLIEGGPSSGAPPPSK (Aib2, αMeF(2F)6, 4Pal10, αMeL13, Orn16, K17(Z1), Aib20, D-Glu24, αMeY25, K40(Z1), C-term NH2; Z1=AEEA2-(γ-Glu)-CO-(CH2)10-CH3)",0.0291,13.9,0.194
"YXEGTXTSDXXIXLDXKAQXEFIXXLIEGGPSSGAPPPSK (Aib2, αMeF(2F)6, 4Pal10, Aib11, αMeL13, Orn16, K17(Z1), Aib20, D-Glu24, αMeY25, K40(Z1), C-term NH2; Z1=AEEA-(γ-Glu)-(10-(4-carboxyphenoxy)decanoyl))",0.053,360,0.765
"YXEGTXTSDYXIXLDXKAQXEFIXXLIEGGPSSGAPPPSK (Aib2, αMeF(2F)6, Aib11, αMeL13, Orn16, K17(Z1), Aib20, D-Glu24, αMeY25, K40(Z1), C-term NH2; Z1=AEEA2-(γ-Glu)-CO-(CH2)10-CH3)",0.0228,2.84,0.137
"YXEGTXTSDXXIXLDXKAQXEFIXXLIEGGPSSGAPPPSK (Aib2, αMeF(2F)6, 4Pal10, Aib11, αMeL13, Orn16, K17(Z1), Aib20, D-Glu24, αMeY25, K40(Z1), C-term NH2; Z1=AEEA2-(γ-Glu)-CO-(CH2)10-CH3)",0.0163,6.28,0.168
"YXEGTXTSDYXIXLDXKAQXEFIXXLIEGGKSSGAPPPS (Aib2, αMeF(2F)6, αMeS11, αMeL13, Orn16, K17(Z1), Aib20, D-Glu24, αMeY25, K31(Z1), C-term NH2; Z1=AEEA2-(γ-Glu)-CO-(CH2)12-CO2H)",0.0573,196,1.21
"YXEGTXTSDXXIXLDXKAQXEFIXXLIKGGPSSGAPPPS (Aib2, αMeF(2F)6, 4Pal10, Aib11, αMeL13, Orn16, K17(Z1), Aib20, D-Glu24, αMeY25, K28(Z1), C-term NH2; Z1=AEEA2-(γ-Glu)-CO-(CH2)10-CH3)",0.0195,75.5,0.325
"YXEGTXTSDXSIXLDXKAQXEXIXXLIEGGKSSGAPPPS (Aib2, αMeF(2F)6, 4Pal10, αMeL13, Orn16, K17(Z1), Aib20, 1Nal22, D-Glu24, αMeY25, K31(Z1), C-term NH2; Z1=AEEA2-(γ-Glu)-CO-(CH2)12-CO2H)",0.263,4150,1.55
"YXEGTXTSDXSIXLDXKAQXEFIXXLIEGGKSSGAPPPS (Aib2, αMeF(2F)6, 2Nal10, αMeL13, Orn16, K17(Z1), Aib20, D-Glu24, αMeY25, K31(Z1), C-term NH2; Z1=AEEA2-(γ-Glu)-CO-(CH2)12-CO2H)",0.297,114,4.35
"YXEGTXTSDXSIXLDXKAQXEFIXXLIEGGKSSGAPPPS (Aib2, αMeF(2F)6, 4Pal10, αMeL13, Orn16, K17(Z1), Aib20, D-Glu24, αMeY25, K31(Z1), C-term NH2; Z1=AEEA2-(γ-Glu)-CO-(CH2)10-CH3)",0.0309,44.8,0.154
"YXEGTXTSDYXIXLDXKAQXEFIXXLIEGGKSSGAPPPS (Aib2, αMeF(2F)6, Aib11, αMeL13, Orn16, K17(Z1), Aib20, D-Glu24, αMeY25, K31(Z1), C-term NH2; Z1=AEEA2-(γ-Glu)-CO-(CH2)12-CO2H)",0.0296,42,0.876
"YXEGTXTSDXSIXLDXKAQXEFIXXLIEGGKSSGAPPPS (Aib2, αMeF(2F)6, αMeL10, αMeL13, Orn16, K17(Z1), Aib20, D-Glu24, αMeY25, K31(Z1), C-term NH2; Z1=AEEA2-(γ-Glu)-CO-(CH2)12-CO2H)",0.0741,51.7,1.64
"YXEGTXTSDXSIXLDXKAQXEFIXXLIEGGKSSGAPPPS (Aib2, αMeF(2F)6, Ac5c10, αMeL13, Orn16, K17(Z1), Aib20, D-Glu24, αMeY25, K31(Z1), C-term NH2; Z1=AEEA2-(γ-Glu)-CO-(CH2)12-CO2H)",0.085,274,1.46
"YXEGTXTSDXSIXLDXKAQXEFIKXLIEGGPSSGAPPPS (Aib2, αMeF(2F)6, 4Pal10, αMeL13, Orn16, K17(Z1), Aib20, K24(Z1), αMeY25, C-term NH2; Z1=AEEA2-(γ-Glu)-CO-(CH2)12-CO2H)",0.054,707,1.4
"YXEGTXTSDXSIXLDXKAQXEFIXXLIEGGKSSGAPPPS (Aib2, αMeF(2F)6, 1Nal10, αMeL13, Orn16, K17(Z1), Aib20, D-Glu24, αMeY25, K31(Z1), C-term NH2; Z1=AEEA2-(γ-Glu)-CO-(CH2)12-CO2H)",0.152,137,2.85
"YXEGTXTSDXSIXLDXKAQXEFIXXLIEGGKSSGAPPPS (Aib2, αMeF(2F)6, Bip10, αMeL13, Orn16, K17(Z1), Aib20, D-Glu24, αMeY25, K31(Z1), C-term NH2; Z1=AEEA2-(γ-Glu)-CO-(CH2)12-CO2H)",0.252,299,5.17
"YXEGTXTSDXSIXLDXKAQXEXIXXLIEGGKSSGAPPPS (Aib2, αMeF(2F)6, 4Pal10, αMeL13, Orn16, K17(Z1), Aib20, 3,5FPhe22, D-Glu24, αMeY25, K31(Z1), C-term NH2; Z1=AEEA2-(γ-Glu)-CO-(CH2)12-CO2H)",0.121,4290,1.05
"YXEGTXTSDXSIXLDXKAQXEFIXXLIEGGKSSGAPPPS (Aib2, αMeF(2F)6, hTyr10, αMeL13, Orn16, K17(Z1), Aib20, D-Glu24, αMeY25, K31(Z1), C-term NH2; Z1=AEEA2-(γ-Glu)-CO-(CH2)12-CO2H)",0.171,2000,0.789
"YXEGTXTSDXSIXLDXKAQXEFIXXLIEGGKSSGAPPPS (Aib2, αMeF(2F)6, OMeY10, αMeL13, Orn16, K17(Z1), Aib20, D-Glu24, αMeY25, K31(Z1), C-term NH2; Z1=AEEA2-(γ-Glu)-CO-(CH2)12-CO2H)",0.208,1920,1.15
